Assay results from the DeepSol protein solubility set.

experiment: soluble on expression in E. coli; label from the status in PepcDB or PDB records

Q: For “MVGTFLGTGASSGVPMLNCSCKVCTSSYSKNKRLRSSFFLESSSGIKLLIDTGPDIRQQLLREKIDRLDLVLYTHEHYDHIMGFDDIKFYTRCAPLNIYARDTAMAHIRNAFPYNFTSKPSLSGKADIIANVIRDFEPFFFKSLKIVPIPLIHGDIISLGYRVGNLAYLTDVKFIPEASYDYLKNLDLLIIDAMRIKPHPAHLNFSEAFCVIKKINPKISYFTHIAHDIMHEEFDYLEKDNIYLAYDGLKIYILEHHHHHH”, which “soluble on expression in E. coli” value is on record?
A: The value was “not soluble”.

Q: With “MRVEIVPIRPEFDAEICQIIQSVGAEFGAIGEGFGPSDAEVLAMSQYYREQDRSAYFVALLEGKVVGGGGIAPFAGHTDLCELKKLFLLPTSRGHGVGRALSEHCLNFAKQQGYTKCYLDTLSSMTQAIKLYQQLGFEHLTQPMAGTEHNGCDVWMLKSLN” as the sequence, how does the “soluble on expression in E. coli” value read?
A: The value was “not soluble”.

Q: Which “soluble on expression in E. coli” value does the source give for “GPGSMMGTDTEKGLYLHAAWDLFERLRPGQQLCVSFFEIYCNSLYDLLNHRHPIVLREDANRRVNICGVTWRTVATVEELWQLVRSGMEQRRTGTTTANEHSSRSHAVLSLRITDSENPDFTGSVNFVDLAGSERAADTAAHDRLTRLEGAEINKSLLALKECIRALDEKKKHVPFRGSRLTEVLRASFTGNSKTVMIAAVSPSSVNHEHTSNTLRYAFRVKGLSVPSVWPSTARNAPRLCLPVARSRSRAAAAVAAANEPTSAPAATECSFNSKHTDDAGSPRRPRHARRRRHAYKTAHEPQDEIGISDTNESCTSDTATESPRPRMQITQKACRHQVGRNSTGSSTSAKRHKTCCLVPYMVESLSQRRTRHRTRKERLPLPRAACSIGESSDLLLANASGTDSKSRALAEVILPHVKGATRHPSSLIAVDVAALEQRLTLQIIAQLRLDLGQQLEEVLMEKDTIISALRSENEKLRQALDKTGNVEQFYGGSPCDGEVQKRPAVLPALLYPSSPSILQEQLSSGVSTASVGDEPPLRVLSE” here?
A: The value was “not soluble”.

Q: With “KSKLGSKLNLIRNYKNLGITLNYKNGFKNCKGEYIAVLEGDDYWIQKSKLKRQVSFLESNRDCSLVFNKIVLDYGDEKINNLIYPFNDIRKKFSARELVRSNFIQNFSCCMYRKSSIRKLRESIYDMVVYDWMFNMAVAQFGLIGYIPNYMTSHRILKSGLWSGKSKMENLQMISKCIDQYDSFFKYKYRKEFSQNKQEVLQALRRLVMVNENG” as the sequence, how does the “soluble on expression in E. coli” value read?
A: Its value is “not soluble”.

Q: With “VTSPLLPQIGVDPPERGDAARNRRLLLDAAALLVAERGVDAVTMDAVACRAGVGKGTVFRRFGSRSGLMHALLDHTERELQQSFMFGPPPLGPGADPIDRLIAYGHARIAIVEVQGEVQRAAENSVEFRFAAPARAVSVRHVVSLLRAAGVRCDHELLACSLLAPLEATLVLHELRDLGMSVERLGAAWEDLIRRVTRC” as the sequence, how does the “soluble on expression in E. coli” value read?
A: Its value is “not soluble”.

Q: With “GPGSMSADKVVIIGAGPTGLGAAVRLMELKHANFHLYDGGTVPGGLSRSVLDDKGFLWDMGGHVIFSHYAYFDDVMNLAISDWNTLQRESWVRCSGAWVPYPFQSNIHRLPPEVRDTCLKGIEEAEAARSVAAPEKPQNFAEYVSRHFGEGIAEVFMRPYNFKVWAVPLHLMSTEWVGERVAAVNVERIRENIQLKRDDVGWGPNATFRFPKSGGTGAIYKAVWKMIPEAHKTLGPQCRVTKVNPITKTLTMANGEAVSYDALVSTMPLDDLLLAVAAGVEEDAETASASALKAPRLREIADKMVYSSTHIIGIGVKGCPPPEMRTACWLYFPEDGIPFYRATIFSRYADTNAPEGHWSILLEVSQNVLYKPVNVDTIVEDCIAGLRTVTLLRPEDEIVSRWHHMEKKGYPIPFVGRNELLEEVQPVLRDKYQIYSRGRFGAWRYEVANQDHSLMQGVEAVGHIFYGTDEDTVHKPEKVNTRRGEMRCTWSSTAS” as the sequence, how does the “soluble on expression in E. coli” value read?
A: The value was “soluble”.

Q: For “MSLKRVSVIICMFLYFVLTDKAHAQRCLPGTKGLRITAGMTDGFHTADKRNELGYHFGMGMDRYVNGCHKWVFSGEYLQKYYPYKDIRVPVSQFTAEGGYYYNFLSDANKVFLCYAGGSVLAGYETVNWGTGMLFDGSRLCVGDAFVYGGAVSLEIETYLANQVVLLFHARERCLWGNDSGHFHFQFGVGLKIILNEGHHHHHH”, which “soluble on expression in E. coli” value is on record?
A: The value was “not soluble”.

Q: With “MGSDKIHHHHHHMIPPASTLRSRLKMQHLRLLLSIEERGSLRQAADALSLSQPAVTKMLQDMEALLGVTLFERHLRGLRPTRFGMAVTRYANLVFSDLANLHDELVSLETGRIGKVRIGAVMAPTPVLMAEVIRRLKRDHPGLNMTVHVDTSDMLVPMLERDQLDLVLGRVPEGWDASHLTFEQLGDERLAVVVGCDHPLAKRTDPTFGELATYPWILQPRPSPMRALIDRSFEEAGVTAPQSTIETAAILMTTSLLTGSDLVAVVPMAVATFHASMGLLHILPVPLPRKLDPYGIVTRLGRPPSASMTLFVDVLRAVVEEGGQ” as the sequence, how does the “soluble on expression in E. coli” value read?
A: Its value is “not soluble”.

Q: For “MRGSHHHHHHGSRSSKNVIKEFMRFKVRMEGTVNGHEFEIEGEGEGRPYEGHNTVKLKVTKGGPLPFAWDILSPQFQYGSKVYVKHPADIPDYKKLSFPEGFKWERVMNFEDGGVVTVTQDSSLQDGCFIYKVKFIGVNFPSDGPVMQKKTMGWEASTERLYPRDGVLKGEIHKALKLKDGGHYLVEFKSIYMAKKPVQLPGYYYVDSKLDITSHNEDYTIVEQYERTEGRHHLFL”, which “soluble on expression in E. coli” value is on record?
A: The value was “soluble”.

Q: Which “soluble on expression in E. coli” value does the source give for “MGSDKIHHHHHHSKATGRGSGGMIGGLVASKVDPDIMSNLINNRPTVLVTGTNGKSTTTRMLAAAMRSTYTVATNEGGDNMDAGIISALLAGRNASHVVLEVDELHVPAAIERLKPDALVLLNLSRDQLDRVGEINKIERVLRDAVRSRPEMTVIANCDDVLVTSVAFDAENVIWVGAGTGWQGESATCPRTESRILHDGRHWSAEKTLLDGRTFARPTPSWEVDGDTIHSPSGDLTLDLNLPGQANRGNAAQAIAASTVFNVPVSSALPAVNSVNNVAGRYSTITVGEHKVHLLLAKNPAGWQEALSMVDRTADGLVIVVNGQVADGEDLSWLWDVRFEDFENLSVKASGERGTDLAVRLTYAEIDHELISNPVDAIAACPPGRIEVLANYTAFRDLKKALEKGTEQ” here?
A: Its value is “not soluble”.

Q: For “MGSDKIHHHHHHLAKIKTKFVCQSCGTESPKWMGRCSGCGEWNTMVEEVVEEKKARRGSAFVHTTTKQLKPERLSNILSQEESRVFTGSGEFDRVLGGGIVPGSMVLVGGDPGIGKSTILLQTSARLAARGEKVLYISGEESLKQTKLRAERLGLPTQDLFVLSETDMNMIERVVDEENPAFLIIDSIQTVYIDEIQSAPGSVTQVRECTAMLMKIAKSRGIAIFIVGHVTKQGSIAGPRLLEHMVDAVLYFEGERHHTFRILRAVKNRFGSTNEIGIFEMRESGLEEVLNPSEIFLEERTSGVSGSTIVASMEGTRTVLVELQALISPTSFGNPRRMATGIDQNKVALLMAVLEKRSGLLLQTQDAYLKAAGGVKLDEPAIDLAICVAVASSFRDKPTRPTDVVIGEVGLTGEVRRVSRIEQRVAEAAKLGFTRAIIPKNNLGGWTYPPGITVIGVESVDEALRETIPF”, which “soluble on expression in E. coli” value is on record?
A: Its value is “not soluble”.

Q: For “MAREFKRSDRVAQEIQKEIAVILQREVKDPRIGMVTVSDVEVSSDLSYAKIFVTFLFDHDEMAIEQGMKGLEKASPYIRSLLGKAMRLRIVPEIRFIYDQSLVEGMRMSNLVTNVVREDEKKHVEESNLEHHHHHH”, which “soluble on expression in E. coli” value is on record?
A: The value was “soluble”.

Q: For “MSLASFPHRNLTWNDINFVHTTDTHGWYSGHINQPLYHANWGDFISFTTHMRRIAHSRNQDLLLIDSGDRHDGNGLSDITSPNGLKSTPIFIKQDYDLLTIGNHELYLWENSKQEYETVVNHFQDKYVCSNVDIRLDNGLFVPLGLKYKYFTTPIRGIRVMAFGFLFDFKRFNSGTRVTPMAETIHEPWFQEALKHEVDLIIIVGHTPISHNWGEFYQVHQYLRQFFPDTIIQYFGGHSHIRDFTVFDSLSTGLQSGRYCETVGWTSVNLDKADLNLPVRQRFSRSYIDEGHHHHHH”, which “soluble on expression in E. coli” value is on record?
A: The value was “not soluble”.

Q: With “MELYETSPYFYQEPRFYDGENYLPVHLQGFEPPGYERTELTLSPEAPGPLEDKGLGTPEHCPGQCLPWACKVCKRKSVSVDRRRAATLREKRRLKKVNEAFEALKRSTLLNPNQRLPKVEILRSAIQYIERLQALLSSLNQEERDLRYRGGGGPQPGVPSECSSHSASCSPEWGSALEFSANPGDHLLTADPTDAHNLHSLTSIVDSITVEDVSVAFPDETMPN” as the sequence, how does the “soluble on expression in E. coli” value read?
A: Its value is “soluble”.

Q: Which “soluble on expression in E. coli” value does the source give for “MQAIAIDQFSEPEETQVEQVENPDRNEAGYEVCNQSGENLSVAIAYFDTSIDSYRSEGWWNLDQSKCQFFPNLLDSVDEVYVFAESDQTLWSGDFPFCMQEDAFEYPDANRDRCPSPAYSKGFLKVEVGDAKTWTTNLTPSQLEHHHHHH” here?
A: The value was “not soluble”.

Q: For “MGSDKIHHHHHHMCQHSIANIDINKDYDESLGTEEVHYQSFSRMAAFFGRDMQAHRHDRYFQMHYLDTGQIELQLDDHRYSVQAPLFVITPPSVPHAFITESDSDGHVLTVHEELIWPLLEVLYPGTRETFGLPGICLSLADKPDELAALAHYWQLIRRESTAQLPGREHTLALLAQAVFTLLLRNAKLDDHAASGMRGELKLFQRFNQMIDSHYHQHWTVPDYARELHLTESRLTDICRRFANRPPKRLIFDRQLREAKRLLLFSDSAVNEIAWQLGFKDPAYFARFFSRQVGCSPSSYRAQKVPVS”, which “soluble on expression in E. coli” value is on record?
A: Its value is “not soluble”.

Q: For “MGSDKIHHHHHHMKLCSVTKIWDKSAHNAFTDLALYRGKLYCVFREASAHVSPDGALRILCTDNDGQDWHSVALIEADFADLRDGKLVIEGDSLFLFGGAAMHEGKGEGMRSYCWQSDDGIHWSAPRALVKEREWLWRITPHKGYFYGIAYYCHEHDGYAALYKSDANTDFYPLVEKLSQAGYVNESGLVFDEEDKAICLLRRDPLWLTDERALLGESAPPYTQWHWQTANCRVGGPVTFLYQGQLYGVVRLYDGRVRTALVAIDRQSAQIAELLTLPSGGDTSYAGVVLSDNILMVSYYSSHEGDCAIYFAKIAL”, which “soluble on expression in E. coli” value is on record?
A: The value was “not soluble”.

Q: For “KYHHLTLTQRAGSAVPTSNKVLDVKGQYLESGLSAPLIAEMRKHLKAGNQVMLFLNRRGFSPALMCHECGWIAECKRCDAYYTFHQYSNEIRCHHCGSQQPVIHQCQGC”, which “soluble on expression in E. coli” value is on record?
A: Its value is “not soluble”.

Q: For “MAHHHHHHMPRPPQRIRAQSEGVVGRWYTNYWTLHSVRYQCQLAGVEWQFGERQRPRTNYDEPHMYTDFEETKAIRDYRSRWINVNRSLVGMSRRMKESEEEARYLHFKKVQDTFWSNRKVLVNRIKSMHNQGTLQSAKDLPIKTINIKAFLAE”, which “soluble on expression in E. coli” value is on record?
A: Its value is “soluble”.

Q: With “MGSDKIHHHHHHMAFNQRTVVMIGPGEHYVTAKNEVIKTLLGSCVAVCLYDPKAQVIGMNHFLLAADRRKFTHFLDSRAGYYGVHAMEILINAMLKRGAQRKYLQSKIFGGANVLSLCADNILNHYDIGGMNIDFVRHFLQRERIPIISEDIGGHCGRVIYFDPTDYSVYRSLIEHKYEEIASLQDEEYRYFNQASEDIHSSGVPVVIWSD” as the sequence, how does the “soluble on expression in E. coli” value read?
A: The value was “not soluble”.

Q: With “MIQFSINRTLFIHALNTTKRAISTKNAIPILSSIKIEVTSTGVTLTGSNGQISIENTIPVSNENAGLLITSPGAILLEASFFINIISSLPDISINVKEIEQHQVVLTSGKSEITLKGKDVDQYPRLQEVSTENPLILKTKLLKSIIAETAFAASLQESRPILTGVHIVLSNHKDFKAVATDSHRMSQRLITLDNTSADFMVVLPSKSLREFSAVFTDDIETVEVFFSPSQILFRSEHISFYTRLLEGNYPDTDRLLMTEFETEVVFNTQSLRHAMERAFLISNATQNGTVKLEITQNHISAHVNSPEVGKVNEDLDIVSQSGSDLTISFNPTYLIESLKAIKSETVKIHFLSPVRPFTLTPGDEEESFIQLITPVRTN” as the sequence, how does the “soluble on expression in E. coli” value read?
A: The value was “soluble”.

Q: Which “soluble on expression in E. coli” value does the source give for “MSFEQTLEKYAALAVNVGVNIQPGQTLSISAPLEAVQFVRLVTEKAYKSGAKHVYVDWNDETLTRLKFDLAPEEAFAEFPSWKAHAREELAKEGAAFMSIYAENPDLLKGVEASRIATAHKVAGEAMKVYRDYVQADKVSWCVISVPTKEWAAKVFPDVAPEEQEAKLWDAIFKATRADLENPVEAWKEHDETLHTKVDYLNEKHYKALHYTGPGTDLTIELPEKHVWAGAGSLNEKNVPFMANIPTEEVFTMPLKTGVNGQVSSTKPLVFAGNIIDNFTLTFENGRIVDYKAEAGEEALKHLVETDEGSHFLGEVALVPHDSPISNTNVLFYNTLFDENASCHLAIGNAYAFNLVGGKTMSKEELAENGANASITHNDFMIGSAELDIDGITADGRHEPIFRKGNWAF” here?
A: Its value is “not soluble”.
